Data from publication PMC7613635 (Nature structural & molecular biology, 2022).
Residue numbers refer to the chain shown, from its start. Values belong to the binder of their own block, whether it stands above or below them.

Assays:
Gallus gallus FANCD2 [1] = biological target: T1, Gallus gallus FANCD2 (Gallus gallus (chicken), UniProt Q68Y81 1-1439); assay: cross-linking
Gallus gallus FANCD2 [2] = biological target: T1, Gallus gallus FANCD2; assay: cryo-EM structure

T1 sequence (Q68Y81 whole entry): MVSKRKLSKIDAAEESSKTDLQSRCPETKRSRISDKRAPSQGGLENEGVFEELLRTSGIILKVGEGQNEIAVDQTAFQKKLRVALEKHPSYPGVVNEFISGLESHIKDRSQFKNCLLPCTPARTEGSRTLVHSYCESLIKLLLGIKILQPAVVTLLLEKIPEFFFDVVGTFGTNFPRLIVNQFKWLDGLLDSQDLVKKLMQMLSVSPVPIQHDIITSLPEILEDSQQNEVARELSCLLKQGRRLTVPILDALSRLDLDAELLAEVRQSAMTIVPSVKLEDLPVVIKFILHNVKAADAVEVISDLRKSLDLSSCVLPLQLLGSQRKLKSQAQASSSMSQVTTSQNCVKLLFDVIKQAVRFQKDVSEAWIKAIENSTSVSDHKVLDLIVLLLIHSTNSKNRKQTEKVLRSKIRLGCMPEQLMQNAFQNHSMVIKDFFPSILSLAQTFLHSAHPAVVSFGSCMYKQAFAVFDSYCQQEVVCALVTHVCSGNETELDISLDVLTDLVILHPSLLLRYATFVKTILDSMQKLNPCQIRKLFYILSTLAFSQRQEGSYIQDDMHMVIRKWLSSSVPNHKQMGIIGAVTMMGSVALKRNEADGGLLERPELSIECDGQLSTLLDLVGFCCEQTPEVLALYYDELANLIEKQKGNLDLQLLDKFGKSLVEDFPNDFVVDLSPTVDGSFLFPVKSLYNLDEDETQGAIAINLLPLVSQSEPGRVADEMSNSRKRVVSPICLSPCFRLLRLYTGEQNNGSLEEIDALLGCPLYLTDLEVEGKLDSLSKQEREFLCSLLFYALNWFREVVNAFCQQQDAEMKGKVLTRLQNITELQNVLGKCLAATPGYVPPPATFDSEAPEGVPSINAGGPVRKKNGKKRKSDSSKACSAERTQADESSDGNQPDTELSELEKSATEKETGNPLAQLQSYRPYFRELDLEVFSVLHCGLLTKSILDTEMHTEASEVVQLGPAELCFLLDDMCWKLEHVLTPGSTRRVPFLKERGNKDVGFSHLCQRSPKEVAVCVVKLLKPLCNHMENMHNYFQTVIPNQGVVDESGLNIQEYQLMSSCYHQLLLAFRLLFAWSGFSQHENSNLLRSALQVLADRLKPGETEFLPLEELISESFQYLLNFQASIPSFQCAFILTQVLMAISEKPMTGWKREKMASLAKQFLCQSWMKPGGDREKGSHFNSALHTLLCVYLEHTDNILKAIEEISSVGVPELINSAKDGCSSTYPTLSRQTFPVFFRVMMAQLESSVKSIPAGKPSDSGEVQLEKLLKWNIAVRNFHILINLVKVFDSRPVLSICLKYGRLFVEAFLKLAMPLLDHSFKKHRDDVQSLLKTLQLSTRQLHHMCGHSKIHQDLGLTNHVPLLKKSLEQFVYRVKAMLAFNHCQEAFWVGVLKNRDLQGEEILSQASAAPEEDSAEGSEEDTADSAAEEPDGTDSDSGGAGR

- binding result (Gallus gallus FANCD2 [1]): binds
B1: Gallus gallus FANCI, wild type (natural protein, Gallus gallus (chicken), UniProt B0I564 1-1338, looked up)
chain: MAQRILQLAAEGSPERLQEALQGLTEGELGDMVTRQALRGRETAALLKGIFKGSPCSQQSGVLRRLQVYKHCVSLVESGDLHVGKVSEIIGLLMLEARQLPGHALAELATLFVEVIKRGSLSNGKSLELFSTVLTALSNSKESLAYGKGELNGEEFKKQLINTLCSSKWDPQCVIHLANMFRDIPLSGEELQFVVEKVLRMFSKLDLQEIPPLVYQLLLLSAKGSKKTVLEGIISFFNQLDKRQKEEQRVPQSADLEVATVPLDQLRHVEGTVILHIVSAINLDQDIGEELIKHLKTEQQKDPGKALCPFSVSLLLSTAVKHRLQEQIFDFLKTSITRSCKDLQILQASKFLQDLCPQQYDVTAVILEVVKNSAFGWDHVTQGLVDLGFSLMESYEPKKSFGGKAAETNLGLSKMPAQQACKLGASILLETFKVHEPIRSDILEQVLNRVLTKAASPVSHFIDLLSNIVVSAPLVLQNSSSRVTETFDNLSFLPIDTVQGLLRAVQPLLKVSMSVRDSLILVLQKAIFSRQLDARKAAVAGFLLLLRNFKILGSLTSSQCSQAIGATQVQADVHACYNSAANEAFCLEILGSLRRCLSQQADVRLMLYEGFYDVLRRNSQLASSIMETLLSQIKQYYLPQQDLLPPLKLEGCIMAQGDQIFLQEPLAHLLCCIQHCLAWYKSTVHLCKGAEDEEEEEDVGFEQNFEEMLESVTRRMIKSELEDFELDKSADFSPSSGVGVKNNIYAIQVMGICEVLIEYNFKIGNFSKNKFEDVLGLFTCYNKLSEILKEKAGKNKSTLGNRIARSFLSMGFVSTLLTALFRDNAQSHEESLAVLRSSTEFMRYAVSVALQKVQQLEEMGQTDGPDGQNPEKMFQNLCKITRVLLWRYTSIPTAVEESGKKKGKSISLLCLEGLLRIFNTMQQLYAARIPQFLQALDITDGDAEEADINVTEKAAFQIRQFQRSLVNQLSSAEDDFNSKETQLLITILSTLSKLLDPGSQQFLQFLTWTVKICKENALEDLSCCKGLLTLLFSLHVLYKSPVSLLRELAQDIHACLGDIDQDVEIESRSHFAIVNVKTAAPTVCLLVLGQADKVLEEVDWLIKRLTILGSDTSEDSTQASNQTQALEKGVILQLGTLLTVFHELVQTALPAGSCVDSLLRSLSKTYAILTSLIKHYIQACRSTSNTVPGRLEKLVKLSGSHLTPQCYSFITYVQNIHSESLSFAEEKKKKKKEDETAVVSTVMAKVLRDTKPIPNLIFAIEQYEKFLIHLSKKSKVNLMQYMKLSTSRDFRINASMLDSVLQEQNTEDAENEPDNNQSGTAEQPDENQEPQKKRRRKK

- binding result (Gallus gallus FANCD2 [2]): binds
B2: phosphomimetic chicken FANCI (I^3D) (natural protein, Gallus gallus (chicken), UniProt B0I564 1-1338, looked up)
chain: B1 chain with S558D, S561D, T567D
